Non-standard residues stand in square brackets, D forms with d. No end group written: not given here. Tyr(3-NO2) = N[C@@H](Cc1ccc(O)c([N+](=O)[O-])c1)C(=O)O; 2Abz = Nc1ccccc1C(=O)O
Assays:
TS4-4 (ADAMTS-4) = biological target: T1, TS4-4 (ADAMTS-4) (Homo sapiens, UniProt O75173); experiment: Selectivity studies: cleavage of FRET peptide substrates by TS4-4; format: biochemical; details: substrate 20 μM, TS4-4 50–90 nM, TNC buffer with 0.005% (v/v) Brij-35, 37 °C; mean of 3–4 independent experiments in triplicate
T1 construct: TS4-4, TS5-5 = catalytic and disintegrin domains; made in house; host or cells: HEK293 cells (previously transfected stocks)
T1 sequence (O75173 213-519 limits assumed): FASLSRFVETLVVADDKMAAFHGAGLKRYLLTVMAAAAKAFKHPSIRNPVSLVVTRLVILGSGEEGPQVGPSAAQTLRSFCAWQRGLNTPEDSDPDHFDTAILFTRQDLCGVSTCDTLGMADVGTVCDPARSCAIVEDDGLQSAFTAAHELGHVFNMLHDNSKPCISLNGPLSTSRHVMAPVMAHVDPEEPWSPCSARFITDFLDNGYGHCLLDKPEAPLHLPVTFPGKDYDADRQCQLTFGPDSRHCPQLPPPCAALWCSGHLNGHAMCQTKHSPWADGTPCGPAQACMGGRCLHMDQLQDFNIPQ
Description: (§1) All proteinase assays were performed at 37 °C in a SpectraMax M5 spectrophotometer (Molecular Devices, San Jose, USA) using a 96-well black microplate (Greiner bio-one, Stonehouse, UK) unless otherwise stated. […] N-TIMP-3 was purified as described previously[30] and CT-1746 was a gift from Dr. Yoshifumi Itoh (Kennedy Institute of Rheumatology, University of Oxford). All analyses were carried out using Prism 9 software (GraphPad, La Jolla, CA, USA).
(§2) Selectivity studies are described for Abz-TESE↓SRGAIY-Dpa-KK-NH2, the library parent peptide 3, and hit peptides 18–26. A solution of Abz-TESE↓SRGAIY-Dpa-KK-NH2 (22.22 μM) in freshly prepared TNC buffer with 0.005% (v/v) Brij-35 (90 μL) was added to a 96-well clear bottom microplate (Greiner bio-one, Stonehouse, UK) in triplicate. A substrate-only background control was also added in triplicate (90 μL). The resultant solutions were incubated at 37 °C (30 min). An ADAMTS or MMP proteinase was added to substrate wells (10 μL) to give a final proteinase concentration of either 50–90 nM (TS4-4), 25–200 nM (TS5-5), 5–10 nM (MMP-2ΔC), 30 nM (MMP-9ΔC), 92 nM (MMP-1), or 3 μM (MMP-3). TNC buffer with 0.005% (v/v) Brij-35 was added to substrate-only control wells (10 μL). The relative fluorescence intensity was measured at 37 °C for 1 h with readings every 20 s. Activity was read from underneath the microplate, which was covered with a low evaporation lid. […] For each ADAMTS and MMP proteinase, the assay was performed 2–4 times. […] Final rates were expressed as a percentage of substrate cleavage by TS5-5 (mean ± SEM) or in μM s^–1 μM^–1 of proteinase.

TS5-5 (ADAMTS-5) = biological target: T2, TS5-5 (ADAMTS-5) (Homo sapiens, UniProt Q9UNA0); experiment: Determination of kinetic parameters (kcat and Km) for substrate cleavage by TS5-5, inner-filter corrected; format: biochemical; details: for decrease in Km compared to the current substrate / lower catalytic rate constant (kcat) compared to the current substrate: TS5-5
T2 construct: ADAMTS-5 (i.e. TS5-5, residues 264–555); FLAG; made in house; host or cells: HEK293 cells (previously transfected stocks)
T2 sequence (Q9UNA0 264-555): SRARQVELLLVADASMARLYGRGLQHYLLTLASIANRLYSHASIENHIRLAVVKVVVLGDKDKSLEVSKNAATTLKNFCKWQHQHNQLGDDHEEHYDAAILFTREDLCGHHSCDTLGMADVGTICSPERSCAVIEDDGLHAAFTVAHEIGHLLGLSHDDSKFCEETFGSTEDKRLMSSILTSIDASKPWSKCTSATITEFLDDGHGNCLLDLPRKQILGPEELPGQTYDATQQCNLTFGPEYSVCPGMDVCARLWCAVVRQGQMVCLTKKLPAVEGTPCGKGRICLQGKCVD
Description: A solution of Abz-TESE↓SRGAIY-Dpa-KK-NH2/3/26 (5 mM) or 19/23 (1 mM) in DMSO underwent a 2-fold serial dilution with freshly prepared TNC buffer containing 0.005% (v/v) Brij-35. This gave initial concentrations in the following range: 222.22 to 0.87 μM (Abz-TESE↓SRGAIY-Dpa-KK-NH2/3/23/26) and 177.78 to 1.39 μM (19). Eight substrate concentrations (180 μL) within these ranges (including outer numbers) were added to a 96-well black microplate in triplicate and incubated at 37 °C (20 min). TNC buffer with 0.005% (v/v) Brij-35 was added to substrate-only control wells in a single replicate (180 μL). TS5-5 proteinase was thawed from −80 or −20 °C, made up in TNC buffer with 0.005% (v/v) Brij-35 (300 nM) and added to substrate wells (20 μL). TNC buffer was added to substrate-only control wells (20 μL). Fluorescence intensity was measured at 37 °C for 1 h with readings every 20 s. The rate of substrate cleavage was determined at each substrate concentration and expressed as the mean ± SEM in μM s^–1. The subsequent data was fitted to the Michaelis–Menten eq 2: [drawing 2] 2 where v is the rate of the reaction, Vmax is the maximal rate of the reaction, Km is the Michaelis constant, and [S] is the substrate concentration. This equation enabled the Km value to be determined. The catalytic rate constant kcat was determined from eq 3: [drawing 3] 3 where [E] is the concentration of proteinase, and kcat and Vmax are as defined previously. These initial Km and kcat parameters were determined from n = 3–4 independent experiments with final values for these parameters reported after a correction for the inner-filter effect.
This was performed based on the protocol described in Liu et al.([40]) to correct for quenching of the released Abz fluorophore by uncleaved substrate. Two sets of initial substrate concentrations were prepared as described in the previous section. Both sets of substrate concentrations (180 μL) were added to a 96-well black microplate in triplicate. Two buffer-alone controls with TNC buffer containing 0.005% (v/v) Brij-35 (180 μL) were also added in triplicate. All solutions were incubated at 37 °C (20 min). Abz fluorophore (1 M) in DMSO was serially diluted to 1 mM in DMSO, before further dilution to 100 μM using TNC buffer containing 0.005% (v/v) Brij-35. TNC buffer containing 0.005% (v/v) Brij-35 (20 μL) was added to the first set of substrate concentrations as well as to the first buffer-alone control. Abz fluorophore (20 μL, 100 μM) was added to the second set of substrate concentrations as well as the second buffer-alone control. The end-point fluorescence intensity was measured at 37 °C using λex = 300 nm and λem = 430 nm. At each substrate concentration, […] to give the actual fluorescence of the Abz fluorophore (RFUAbz). These values were divided by RFUAbz at a substrate concentration of 0 μM to give the correction factor for each concentration. The rates for each substrate concentration described in the previous section were divided by their respective correction factors (Tables S6–S10) to deliver the inner-filter corrected kcat and Km values.

[1] = biological target: T3, TS5-5 (combined catalytic and disintegrin domain of ADAMTS-5) (Homo sapiens, UniProt Q9UNA0); experiment: Cleavage of FRET peptide substrates by TS5-5 in solution (activity/selectivity studies); format: biochemical; details: substrate 20 μM, TNC buffer with 0.005% (v/v) Brij-35, 37 °C; mean of 3–4 independent experiments in triplicate
T3 construct: ADAMTS-5 (i.e. TS5-5, residues 264–555); FLAG; made in house; host or cells: HEK293 cells (previously transfected stocks)
T3 sequence (Q9UNA0 264-555): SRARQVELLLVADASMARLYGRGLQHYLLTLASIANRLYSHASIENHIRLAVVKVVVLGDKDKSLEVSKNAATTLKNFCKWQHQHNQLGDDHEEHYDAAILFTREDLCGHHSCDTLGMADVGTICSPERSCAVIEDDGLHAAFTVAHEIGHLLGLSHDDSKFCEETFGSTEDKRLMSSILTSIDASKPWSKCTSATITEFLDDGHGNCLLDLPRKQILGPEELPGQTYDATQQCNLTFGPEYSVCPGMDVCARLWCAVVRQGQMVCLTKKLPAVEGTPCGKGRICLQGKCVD
Description: as §1
To test whether active TS5-5 had been purified, three concentrations of proteinase were assayed. A solution of Abz-TESE↓SRGAIY-Dpa-KK-NH2 (22.22 μM) in freshly prepared TNC buffer with 0.02% (v/v) Brij-35 (180 μL) was added to a 96-well black microplate in triplicate for each proteinase concentration. A substrate-only background control was also added in triplicate (180 μL). The resultant solutions were incubated at 37 °C (30 min). TS5-5 proteinase in TNC buffer with 0.02% (v/v) Brij-35 (20 μL) was added to wells to give final proteinase concentrations of 80 nM, 40 nM and 20 nM. TNC buffer with 0.02% (v/v) Brij-35 (20 μL) was also added to background control wells. The change in RFU was measured at 37 °C for 1 h, with readings every 20 s. Following subtraction of background fluorescence intensity, linear regression analysis of the linear part of each curve was used to determine the cleavage rate, which was expressed as the mean ± SEM in RFU s^–1. For cases where a single concentration of TS5-5 or TS4-4 was assayed, the same procedure was used but with 0.005% (v/v) Brij-35 and using the 5-FAM-AE↓LQGRPISIAK-TAMRA substrate for TS4-4 (0.56 μM). To convert cleavage rates to nM s^–1 nM^–1, the rate in RFU s^–1 was divided by the final concentration of proteinase (nM), then divided by the gradient of the calibration curve for Abz or 5-FAM (expressed in RFU nM^–1).
as §2

[2] = tested on: MMP-9ΔC (catalytic domain of MMP-9); experiment: Selectivity studies: cleavage of FRET peptide substrates by MMP-9ΔC; format: biochemical; details: substrate 20 μM, after 48 h at an MMP-9 concentration of 30 nM, 37 °C
Description: as §1, §2

[3] = biological target: combined catalytic and disintegrin domain of ADAMTS-5 (TS5-5) (UniProt Q9UNA0)
[4] = TS5-5, TNC buffer with 0.005% (v/v) Brij-35, 37 °C, corrected for inner filter effect, mean ± SEM from 3–4 independent experiments in triplicate
[5] = supplementary CSV copy of Table 3, TS5-5, 37 °C

## KY(NO2)TENESRGK(Abz)IYYKKG (K[Tyr(3-NO2)]TENESRGK(Abz)IYYKKG) [Compound 19]
TS4-4 (ADAMTS-4)
  rate of cleavage by TS4-4: 0.08–0.10 μM s^–1 μM^–1
TS5-5 (ADAMTS-5)
  decrease in Km compared to the current substrate: ~4 fold
  lower catalytic rate constant (kcat) compared to the current substrate: ~7 fold
TS5-5 (ADAMTS-5); [4]
  Km: 30.5 ± 2 µM
  kcat: 0.53 ± 0.014 s⁻¹
  kcat/Km: 17500 ± 1080 M⁻¹ s⁻¹
TS5-5 (ADAMTS-5); [5]
  kcat: 0.53 ± 0.014 s⁻¹

## KY(NO2)NDTESOAK(Abz)AHFUKG [Compound 24]
[1]
  rate of cleavage by TS5-5: 1.41 × 10^–4 μM s^–1 μM^–1
[2]
  cleavage by MMP-9ΔC: no signs of cleavage

## KY(NO2)NESESKAK(Abz)VHYKKG (K[Tyr(3-NO2)]NESESKAK(2Abz)V-{H2N-Tyr-Lys-Lys-Gly}) [Compound 25]
[1]
  rate of cleavage by TS5-5: 1.78 × 10^–2 μM s^–1 μM^–1
[2]
  cleavage by MMP-9ΔC: no signs of cleavage

## KY(NO2)QDSESBAK(Abz)JHYUKG [Compound 20]
[1]
  rate of cleavage by TS5-5: 1.22 × 10^–3 μM s^–1 μM^–1
[2]
  cleavage by MMP-9ΔC: no signs of cleavage

## KY(NO2)SESESRGK(Abz)IYYKKG (K[Tyr(3-NO2)]SESESRGK(Abz)IYYKKG) [Compound 23]
TS5-5 (ADAMTS-5)
  decrease in Km compared to the current substrate: ~2 fold
  lower catalytic rate constant (kcat) compared to the current substrate: ~3 fold
TS5-5 (ADAMTS-5); [4]
  Km: 64.6 ± 4.6 µM
  kcat: 1.14 ± 0.11 s⁻¹
  kcat/Km: 18200 ± 2940 M⁻¹ s⁻¹
TS5-5 (ADAMTS-5); [5]
  kcat: 1.14 ± 0.11 s⁻¹

## KY(NO2)TETESOAK(Abz)IYFKKG [Compound 22]
[1]
  rate of cleavage by TS5-5: 7.38 × 10^–2 μM s^–1 μM^–1

## ortho-aminobenzoyl(Abz)-TESE↓SRGAIY-N-3-[2,4-dinitrophenyl]-L-2,3-diaminopropionyl(Dpa)-KK-NH2 (peptide)
[3]
  Km of cleavage of the FRET peptide by TS5-5 (Michaelis-Menten fit, corrected for the inner-filter effect, 37 °C, TNC buffer with 0.005% Brij-35): 125 µM

B1: KY(NO2)TESESRGK(Abz)IYYKKG (3) (peptide)
peptide: K[Tyr(3-NO2)]TESESRGK(2Abz)IYYKKG
[3]
  Km of cleavage of the FRET peptide by TS5-5 (Michaelis-Menten fit, corrected for the inner-filter effect, 37 °C, TNC buffer with 0.005% Brij-35): 29.5 µM

B2: KY(NO2)TENESRGK(Abz)IYYKKG (19) (peptide)
peptide: K[Tyr(3-NO2)]TENESRGK(2Abz)IYYKKG
[3]
  Km of cleavage of the FRET peptide by TS5-5 (Michaelis-Menten fit, corrected for the inner-filter effect, 37 °C, TNC buffer with 0.005% Brij-35): 30.5 µM

B3: KY(NO2)SENESRGK(Abz)IYYKKG (26) (peptide)
peptide: K[Tyr(3-NO2)]SENESRGK(2Abz)IYYKKG
[3]
  Km of cleavage of the FRET peptide by TS5-5 (Michaelis-Menten fit, corrected for the inner-filter effect, 37 °C, TNC buffer with 0.005% Brij-35): 76.9 µM
